Target: integrin α7β1 on C2C12 murine myoblasts (murine) (UniProt Q61738)
Assay: cell-based or functional assay

- C2C12 skeletal muscle cell attachment to a βIG-H3 substratum after function-perturbing anti-α7 antibody (% reduction of attachment): 80
Substance: human recombinant βIG-H3 (Transforming Growth Factor-β Induced Gene-Human Clone 3 protein), expressed in CHO cells and purified (from UniProt Q15582 1-683) (ligand)

From patent US20030211141A1
